{"source": "patent US20050042747A1", "about": "“Hivgp120-induced bob/gpr15 activation” (priority 2001, published 2005)", "key": {"GPR15/Bob (human)": {"target": "GPR15/Bob (human) (UniProt P49685)", "sequence (P49685 whole entry)": "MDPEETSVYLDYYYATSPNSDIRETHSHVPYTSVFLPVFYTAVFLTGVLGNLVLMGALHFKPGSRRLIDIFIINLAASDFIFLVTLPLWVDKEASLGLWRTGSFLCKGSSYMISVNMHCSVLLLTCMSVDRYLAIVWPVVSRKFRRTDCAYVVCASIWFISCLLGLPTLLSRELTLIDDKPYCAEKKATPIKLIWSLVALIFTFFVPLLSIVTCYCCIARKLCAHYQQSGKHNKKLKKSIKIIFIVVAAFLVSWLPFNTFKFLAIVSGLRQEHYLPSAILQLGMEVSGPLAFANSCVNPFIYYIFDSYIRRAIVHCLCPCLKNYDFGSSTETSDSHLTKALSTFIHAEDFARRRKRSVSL", "assay": "cell-based or functional assay"}, "CCR5": {"target": "CCR5 (UniProt P51681)", "assay": "cell-based or functional assay"}, "CXCR4": {"target": "CXCR4 (UniProt P61073)", "assay": "quantitative cellular enzyme-linked assay on HT-29-D4 cells"}}, "data": [{"substance": "gp12093TH975 (ligand)", "values": [{"measurement": "calcium signaling in HT-29 cells", "setting": "GPR15/Bob (human)", "result": "> 10", "unit": "nM"}, {"measurement": "minimal gp120 concentration giving a calcium flux, transfected Ghost (3) cells", "setting": "CCR5", "result": 100, "unit": "nM"}]}, {"substance": "gp120SF2 (from UniProt P03378 32-509) (ligand)", "values": [{"measurement": "calcium signaling in HT-29 cells", "setting": "GPR15/Bob (human)", "result": "> 10", "unit": "nM"}]}, {"substance": "anti-CXCR4 mouse monoclonal antibody (clone 12G5)", "values": [{"measurement": "concentration giving saturation binding", "setting": "CXCR4", "result": 20, "unit": "µg/mL"}]}, {"substance": "gp120(SEN) (ligand)", "values": [{"measurement": "relative TEER 20 min after the addition of gp120, HT-29-D4 cells (relative TEER)", "setting": "GPR15/Bob (human)", "result": 2.52}]}, {"substance": "gp120(IIIB), purified from HIV-1(IIIB) (from UniProt P03375 33-511) (ligand)", "values": [{"measurement": "relative TEER 20 min after the addition of gp120, HT-29-D4 cells (relative TEER)", "setting": "GPR15/Bob (human)", "result": 1.6}]}, {"substance": "gp120CM235 (ligand)", "values": [{"measurement": "least gp120 concentration inducing calcium signaling, Bob-transfected Ghost (3) cells", "setting": "GPR15/Bob (human)", "result": 8, "unit": "pM"}, {"measurement": "minimal concentration causing calcium signaling in HT-29 cells", "setting": "GPR15/Bob (human)", "result": 2.5, "unit": "nM"}, {"measurement": "minimal gp120 concentration giving a calcium flux, transfected Ghost (3) cells", "setting": "GPR15/Bob (human)", "result": 10, "unit": "pM"}]}, {"substance": "gp120MN (from UniProt P05877 32-513) (ligand)", "values": [{"measurement": "calcium signaling in HT-29 cells", "setting": "GPR15/Bob (human)", "result": "> 10", "unit": "nM"}]}]}
